Numbered stars: 1 amine (or outer) side, 2 acyl side, 3 side chain; on linkers, the order of the positions; unused ones are H or OH. Bridge positions count the residues as written; N and C are the ends. Side chains are listed from the residue outwards. Ends that are not written are not given here. * marks the point of attachment. C20 diacid = O=C(O)CCCCCCCCCCCCCCCCCCC(=O)*; γGlu = O=C(O)[C@H](CCC(=O)[*:2])N[*:1]
T1: rat calcitonin receptor (rat, UniProt P32214 25-516)
T1 construct: whole, on cells; Membranes prepared from transiently transfected BHK tk'ts 13 cells (Assay VIII); also called rCTR; rCT
T1 sequence (looked up): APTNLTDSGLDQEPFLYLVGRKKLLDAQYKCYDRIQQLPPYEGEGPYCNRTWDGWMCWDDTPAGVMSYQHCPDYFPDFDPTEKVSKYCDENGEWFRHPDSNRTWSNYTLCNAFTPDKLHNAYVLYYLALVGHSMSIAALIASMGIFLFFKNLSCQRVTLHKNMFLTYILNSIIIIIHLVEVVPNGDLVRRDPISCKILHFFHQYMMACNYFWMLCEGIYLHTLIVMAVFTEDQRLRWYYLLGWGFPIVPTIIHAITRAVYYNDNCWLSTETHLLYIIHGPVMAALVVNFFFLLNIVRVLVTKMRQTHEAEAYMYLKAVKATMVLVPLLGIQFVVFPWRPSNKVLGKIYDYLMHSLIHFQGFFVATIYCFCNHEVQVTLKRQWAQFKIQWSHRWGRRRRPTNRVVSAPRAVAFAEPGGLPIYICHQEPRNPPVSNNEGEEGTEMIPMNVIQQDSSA

T2: human calcitonin receptor (human, UniProt P30988 25-474)
T2 construct: whole, on cells; Membranes prepared from a stably transfected BHK cell line (Assay VII); also called hCTR; hCT
T2 sequence (looked up): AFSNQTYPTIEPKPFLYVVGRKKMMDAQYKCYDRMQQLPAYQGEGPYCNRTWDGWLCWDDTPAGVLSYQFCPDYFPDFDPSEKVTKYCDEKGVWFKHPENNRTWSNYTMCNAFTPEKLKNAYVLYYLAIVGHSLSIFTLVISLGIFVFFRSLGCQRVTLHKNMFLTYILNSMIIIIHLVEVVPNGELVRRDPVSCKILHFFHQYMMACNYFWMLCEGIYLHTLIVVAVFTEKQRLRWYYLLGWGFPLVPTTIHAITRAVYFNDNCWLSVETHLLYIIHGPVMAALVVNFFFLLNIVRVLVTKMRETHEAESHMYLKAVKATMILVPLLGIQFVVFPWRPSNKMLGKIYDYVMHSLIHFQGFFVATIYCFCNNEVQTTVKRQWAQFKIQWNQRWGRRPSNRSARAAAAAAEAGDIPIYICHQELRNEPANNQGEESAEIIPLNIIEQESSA

T3: rat amylin receptor (rat calcitonin receptor + rat RAMP 3) (rat, UniProt P32214 25-516; Q9JJ73 23-147)
T3 construct: whole, on cells; Membranes prepared from transiently transfected BHK tk'ts 13 cells (Assay VI); also called rAmylin-R; rAmylin
T3 sequence (looked up) 1: T1 sequence (looked up)
T3 sequence (looked up) 2: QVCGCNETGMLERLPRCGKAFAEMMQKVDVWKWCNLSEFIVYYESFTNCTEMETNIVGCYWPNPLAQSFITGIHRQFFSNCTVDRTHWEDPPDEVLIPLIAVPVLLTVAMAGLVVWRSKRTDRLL

B1: N^ε1-[(4S)-4-carboxy-4-(19-carboxynonadecanoylamino)butanoyl]-[His14,Arg17,Pro21,Pro27,His35]-h-amylin (peptide)
peptide: K([γGlu-C20 diacid])CNTATCATQRLAHFLRHSSPNFGAIPSSTNVGSHTY-NH2
modifications: disulfide 2-7; N-terminus assumed
SMILES: CC[C@H](C)[C@H](NC(=O)[C@H](C)NC(=O)CNC(=O)[C@H](Cc1ccccc1)NC(=O)[C@H](CC(N)=O)NC(=O)[C@@H]1CCCN1C(=O)[C@H](CO)NC(=O)[C@H](CO)NC(=O)[C@H](Cc1c[nH]cn1)NC(=O)[C@H](CCCNC(=N)N)NC(=O)[C@H](CC(C)C)NC(=O)[C@H](Cc1ccccc1)NC(=O)[C@H](Cc1c[nH]cn1)NC(=O)[C@H](C)NC(=O)[C@H](CC(C)C)NC(=O)[C@H](CCCNC(=N)N)NC(=O)[C@H](CCC(N)=O)NC(=O)[C@@H](NC(=O)[C@H](C)NC(=O)[C@@H]1CSSC[C@H](NC(=O)[C@@H](N)CCCCNC(=O)CC[C@H](NC(=O)CCCCCCCCCCCCCCCCCCC(=O)O)C(=O)O)C(=O)N[C@@H](CC(N)=O)C(=O)N[C@@H]([C@@H](C)O)C(=O)N[C@@H](C)C(=O)N[C@@H]([C@@H](C)O)C(=O)N1)[C@@H](C)O)C(=O)N1CCC[C@H]1C(=O)N[C@@H](CO)C(=O)N[C@@H](CO)C(=O)N[C@H](C(=O)N[C@@H](CC(N)=O)C(=O)N[C@H](C(=O)NCC(=O)N[C@@H](CO)C(=O)N[C@@H](Cc1c[nH]cn1)C(=O)N[C@H](C(=O)N[C@@H](Cc1ccc(O)cc1)C(N)=O)[C@@H](C)O)C(C)C)[C@@H](C)O
notes: Analogue of human amylin; also called compound 66
B2: N^ε1-[(4S)-4-carboxy-4-[[(4S)-4-carboxy-4-(19-carboxynonadecanoylamino)butanoyl]amino]butanoyl]-[Glu14,Arg17,Pro21,Pro27,Arg34]-h-amylin (peptide)
peptide: K([γGlu-γGlu-C20 diacid])CNTATCATQRLAEFLRHSSPNFGAIPSSTNVGRNTY-NH2
modifications: disulfide 2-7; N-terminus assumed
SMILES: CC[C@H](C)[C@H](NC(=O)[C@H](C)NC(=O)CNC(=O)[C@H](Cc1ccccc1)NC(=O)[C@H](CC(N)=O)NC(=O)[C@@H]1CCCN1C(=O)[C@H](CO)NC(=O)[C@H](CO)NC(=O)[C@H](Cc1c[nH]cn1)NC(=O)[C@H](CCCNC(=N)N)NC(=O)[C@H](CC(C)C)NC(=O)[C@H](Cc1ccccc1)NC(=O)[C@H](CCC(=O)O)NC(=O)[C@H](C)NC(=O)[C@H](CC(C)C)NC(=O)[C@H](CCCNC(=N)N)NC(=O)[C@H](CCC(N)=O)NC(=O)[C@@H](NC(=O)[C@H](C)NC(=O)[C@@H]1CSSC[C@H](NC(=O)[C@@H](N)CCCCNC(=O)CC[C@H](NC(=O)CC[C@H](NC(=O)CCCCCCCCCCCCCCCCCCC(=O)O)C(=O)O)C(=O)O)C(=O)N[C@@H](CC(N)=O)C(=O)N[C@@H]([C@@H](C)O)C(=O)N[C@@H](C)C(=O)N[C@@H]([C@@H](C)O)C(=O)N1)[C@@H](C)O)C(=O)N1CCC[C@H]1C(=O)N[C@@H](CO)C(=O)N[C@@H](CO)C(=O)N[C@H](C(=O)N[C@@H](CC(N)=O)C(=O)N[C@H](C(=O)NCC(=O)N[C@@H](CCCNC(=N)N)C(=O)N[C@@H](CC(N)=O)C(=O)N[C@H](C(=O)N[C@@H](Cc1ccc(O)cc1)C(N)=O)[C@@H](C)O)C(C)C)[C@@H](C)O
notes: Analogue of human amylin; also called compound 88
B3: N^ε1-[(4S)-4-carboxy-4-[[(4S)-4-carboxy-4-(19-carboxynonadecanoylamino)butanoyl]amino]butanoyl]-[Arg17,Pro21,Pro27,His34]-h-amylin (peptide)
peptide: K([γGlu-γGlu-C20 diacid])CNTATCATQRLANFLRHSSPNFGAIPSSTNVGHNTY-NH2
modifications: disulfide 2-7; N-terminus assumed
SMILES: CC[C@H](C)[C@H](NC(=O)[C@H](C)NC(=O)CNC(=O)[C@H](Cc1ccccc1)NC(=O)[C@H](CC(N)=O)NC(=O)[C@@H]1CCCN1C(=O)[C@H](CO)NC(=O)[C@H](CO)NC(=O)[C@H](Cc1c[nH]cn1)NC(=O)[C@H](CCCNC(=N)N)NC(=O)[C@H](CC(C)C)NC(=O)[C@H](Cc1ccccc1)NC(=O)[C@H](CC(N)=O)NC(=O)[C@H](C)NC(=O)[C@H](CC(C)C)NC(=O)[C@H](CCCNC(=N)N)NC(=O)[C@H](CCC(N)=O)NC(=O)[C@@H](NC(=O)[C@H](C)NC(=O)[C@@H]1CSSC[C@H](NC(=O)[C@@H](N)CCCCNC(=O)CC[C@H](NC(=O)CC[C@H](NC(=O)CCCCCCCCCCCCCCCCCCC(=O)O)C(=O)O)C(=O)O)C(=O)N[C@@H](CC(N)=O)C(=O)N[C@@H]([C@@H](C)O)C(=O)N[C@@H](C)C(=O)N[C@@H]([C@@H](C)O)C(=O)N1)[C@@H](C)O)C(=O)N1CCC[C@H]1C(=O)N[C@@H](CO)C(=O)N[C@@H](CO)C(=O)N[C@H](C(=O)N[C@@H](CC(N)=O)C(=O)N[C@H](C(=O)NCC(=O)N[C@@H](Cc1c[nH]cn1)C(=O)N[C@@H](CC(N)=O)C(=O)N[C@H](C(=O)N[C@@H](Cc1ccc(O)cc1)C(N)=O)[C@@H](C)O)C(C)C)[C@@H](C)O
notes: Analogue of human amylin; also called compound 86
B4: N^ε1-[(4S)-4-carboxy-4-(19-carboxynonadecanoylamino)butanoyl]-[His14,Arg17,Pro21,Pro27,Pro34]-h-amylin (peptide)
peptide: K([γGlu-C20 diacid])CNTATCATQRLAHFLRHSSPNFGAIPSSTNVGPNTY-NH2
modifications: disulfide 2-7; N-terminus assumed
SMILES: CC[C@H](C)[C@H](NC(=O)[C@H](C)NC(=O)CNC(=O)[C@H](Cc1ccccc1)NC(=O)[C@H](CC(N)=O)NC(=O)[C@@H]1CCCN1C(=O)[C@H](CO)NC(=O)[C@H](CO)NC(=O)[C@H](Cc1c[nH]cn1)NC(=O)[C@H](CCCNC(=N)N)NC(=O)[C@H](CC(C)C)NC(=O)[C@H](Cc1ccccc1)NC(=O)[C@H](Cc1c[nH]cn1)NC(=O)[C@H](C)NC(=O)[C@H](CC(C)C)NC(=O)[C@H](CCCNC(=N)N)NC(=O)[C@H](CCC(N)=O)NC(=O)[C@@H](NC(=O)[C@H](C)NC(=O)[C@@H]1CSSC[C@H](NC(=O)[C@@H](N)CCCCNC(=O)CC[C@H](NC(=O)CCCCCCCCCCCCCCCCCCC(=O)O)C(=O)O)C(=O)N[C@@H](CC(N)=O)C(=O)N[C@@H]([C@@H](C)O)C(=O)N[C@@H](C)C(=O)N[C@@H]([C@@H](C)O)C(=O)N1)[C@@H](C)O)C(=O)N1CCC[C@H]1C(=O)N[C@@H](CO)C(=O)N[C@@H](CO)C(=O)N[C@H](C(=O)N[C@@H](CC(N)=O)C(=O)N[C@H](C(=O)NCC(=O)N1CCC[C@H]1C(=O)N[C@@H](CC(N)=O)C(=O)N[C@H](C(=O)N[C@@H](Cc1ccc(O)cc1)C(N)=O)[C@@H](C)O)C(C)C)[C@@H](C)O
notes: Analogue of human amylin; also called compound 67
B5: N^ε1-[(4S)-4-carboxy-4-(19-carboxynonadecanoylamino)butanoyl]-[His14,Arg17,Pro21,Pro27,Pro31]-h-amylin (peptide)
peptide: K([γGlu-C20 diacid])CNTATCATQRLAHFLRHSSPNFGAIPSSTPVGSNTY-NH2
modifications: disulfide 2-7; N-terminus assumed
SMILES: CC[C@H](C)[C@H](NC(=O)[C@H](C)NC(=O)CNC(=O)[C@H](Cc1ccccc1)NC(=O)[C@H](CC(N)=O)NC(=O)[C@@H]1CCCN1C(=O)[C@H](CO)NC(=O)[C@H](CO)NC(=O)[C@H](Cc1c[nH]cn1)NC(=O)[C@H](CCCNC(=N)N)NC(=O)[C@H](CC(C)C)NC(=O)[C@H](Cc1ccccc1)NC(=O)[C@H](Cc1c[nH]cn1)NC(=O)[C@H](C)NC(=O)[C@H](CC(C)C)NC(=O)[C@H](CCCNC(=N)N)NC(=O)[C@H](CCC(N)=O)NC(=O)[C@@H](NC(=O)[C@H](C)NC(=O)[C@@H]1CSSC[C@H](NC(=O)[C@@H](N)CCCCNC(=O)CC[C@H](NC(=O)CCCCCCCCCCCCCCCCCCC(=O)O)C(=O)O)C(=O)N[C@@H](CC(N)=O)C(=O)N[C@@H]([C@@H](C)O)C(=O)N[C@@H](C)C(=O)N[C@@H]([C@@H](C)O)C(=O)N1)[C@@H](C)O)C(=O)N1CCC[C@H]1C(=O)N[C@@H](CO)C(=O)N[C@@H](CO)C(=O)N[C@H](C(=O)N1CCC[C@H]1C(=O)N[C@H](C(=O)NCC(=O)N[C@@H](CO)C(=O)N[C@@H](CC(N)=O)C(=O)N[C@H](C(=O)N[C@@H](Cc1ccc(O)cc1)C(N)=O)[C@@H](C)O)C(C)C)[C@@H](C)O
notes: Analogue of human amylin; also called compound 62

target: T1, rat calcitonin receptor; experiment: SPA competition vs 125I-calcitonin, membranes of BHK cells with rat calcitonin receptor (Assay VIII)

Binder	IC50
B1	20.8 nM
B2	196 nM
B3	352 nM
B4	14.7 nM
B5	18 nM

target: T2, human calcitonin receptor; experiment: ratio of binding IC50s: human calcitonin receptor / human amylin receptor (reference)
Summary of the method: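 Competition binding by SPA with cell membranes (35 ng/μL) and SPA beads in 50 mM Hepes pH 7.4 with 1 mM CaCl2, 5 mM MgCl2, 0.1% OA and 0.02% Tween20. Incubated 120 min at 25 °C with shaking, then counted.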

Binder	Ratio hCT/hAmylin binding
B1	45.5
B2	46.5
B3	159
B4	51.6
B5	63

target: T1, rat calcitonin receptor; experiment: ratio of binding IC50s: rat calcitonin receptor / rat amylin receptor (reference)

Binder	Ratio rCT/rAmylin binding
B1	35.8
B2	84.9
B3	126
B4	85.4
B5	42.8

target: T3, rat amylin receptor (rat calcitonin …); experiment: SPA competition vs 125I-rat amylin, membranes of BHK cells with rat calcitonin receptor + rat RAMP3 (Assay VI)

Binder	IC50
B1	0.581 nM
B2	2.31 nM
B3	2.8 nM
B4	0.172 nM
B5	0.42 nM

From US20140087995A1 (published 2014)
